Data from the supplement of paper PMC10126150.
± gives the standard deviation of the averaged measurements.

Tested on: ATP
Assay: switch fluorescence ratio, 500 uM ATP over buffer (Cy3 cluster intensity, sum of 5 cycles each) (fold (ratio)); higher = stronger signal-on switching upon ATP binding; sequences stand for … in TCGTCGGCAGCGTCAGATGTGTATAAGAGACAGTTTTTTTTTTTTTTTTTTTTTTTTT…TC
Settings: aptamer strand: ATP DNA aptamer (quencher-CACCTGGGGGAGTATTGCGGAGGAAGG + anchor), 100 nM annealed; ATP concentration: 500 uM
Outline: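 Per cluster, summed Cy3 intensity from the target cycles was divided by that from the buffer cycles to give the fluorescence ratio, then averaged per switch-domain sequence. Clusters outside 100-1000 RFU were excluded. The Cy3-labelled switching-strand clusters, on a modified Illumina MiSeq flow-cell, were annealed to 100 nM quencher-labelled ATP aptamer and imaged in selection buffer, then after 15 min with 500 uM ATP at 22 °C, for five cycles with NaOH stripping and re-annealing between them.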
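Further: ATP exposure 15 min at 22 °C before imaging.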

| Sequence | switch fluorescence ratio |
| --- | --- |
| GTGGTTTTCG | 1.03 ± 0.062 |
| AAGTTAATGG | 1.015 ± 0.0071 |
| GCAGGAAGTC | 0.994 ± 0.0039 |
| ATTTAATTGT | 0.986 ± 0.053 |
| GCAGTGTACG | 0.997 ± 0.0087 |
| TTCGGTAGCG | 0.996 ± 0.046 |
| TAATTTTAGC | 0.9913 ± 0.0086 |
| TCATGCATCT | 1.01 ± 0.072 |
| GGTGGGGAAA | 1.0255 ± 0.00086 |
| CTGTAAGGAA | 0.989 ± 0.026 |
| GCTGGTTTTG | 0.9716 ± 0.004 |
| CTGGTTTTGC | 0.998 ± 0.022 |
| GATATATGAG | 0.997 ± 0.064 |
| TTGACGTCGG | 0.985 ± 0.018 |
| TTATTCAAAT | 1.02 ± 0.035 |
| TTTTCTTTTA | 1.001 ± 0.0032 |
| GTGGATTATC | 1.01 ± 0.036 |
| TAACGGTGTG | 0.962 ± 0.017 |
| CGTCCGGCAG | 1.67 ± 0.083 |
| GGGTTGCAAC | 1.24 ± 0.32 |
| GATATGGGAG | 0.988 ± 0.018 |
| CCTGATGCGG | 1.02 ± 0.059 |
| TGGATTGGAT | 1.03 ± 0.035 |
| GCGCTGGGTG | 1.11 ± 0.16 |
| TTGCATTGGA | 0.9885 ± 0.0079 |

| Sequence | switch fluorescence ratio |
| --- | --- |
| TACAGGGCTC | 1.05 ± 0.024 |
| TGCTATGGGT | 0.975 ± 0.023 |
| ATTTTTTGG | 0.997 ± 0.017 |
| GGCGGGTGCG | 0.984 ± 0.028 |
| GAAGGAGGGA | 0.987 ± 0.018 |
| TTTCATCGCC | 1.01 ± 0.012 |
| GCAGCATGTG | 1.04 ± 0.026 |
| ATATATTTAT | 1.022 ± 0.0085 |
| TTGAGAGCAA | 1.72 ± 0.18 |
| AAATAGTGG | 0.9626 ± 0.0063 |
| GTTTCGGGTG | 1.64 ± 0.84 |
| CTGTTCTTTG | 0.982 ± 0.019 |
| GGCTTTACTA | 1 ± 0.012 |
| AGGTTCTTA | 0.994 ± 0.06 |
| GTTAGGGTTG | 1.02 ± 0.045 |
| AGTCTGAGCG | 1.03 ± 0.024 |
| CCAGGGCTAG | 1.02 ± 0.062 |
| CCGGACGTTC | 1.53 ± 0.042 |
| TTAAAAAAGA | 0.998 ± 0.013 |
| CGGTATTGGT | 0.976 ± 0.031 |
| ACGGTCCAAG | 1.02 ± 0.015 |
| TGACGTTCAG | 0.996 ± 0.02 |
| ACTGTTTTGA | 0.962 ± 0.01 |
| TTTGGAGTCT | 0.982 ± 0.031 |
| GTCCGAAAGA | 1.18 ± 0.095 |

| Sequence | switch fluorescence ratio |
| --- | --- |
| CGACTACTTT | 1.05 ± 0.031 |
| GTTCCCAGTT | 0.997 ± 0.017 |
| GGGGTGTGTG | 0.986 ± 0.021 |
| GGATTATGTA | 0.999 ± 0.026 |
| TCGACCGGGG | 1.039 ± 0.0098 |
| GGCGGGGTGG | 1.09 ± 0.12 |
| TAGGATGTAT | 0.9864 ± 0.0088 |
| TCCCATGTTT | 0.963 ± 0.032 |
| TTTTGATGAG | 0.987 ± 0.021 |
| GTTTGGGCTT | 1.05 ± 0.063 |
| GCTGATGTTT | 1.023 ± 0.0095 |
| ACTTTCTAGC | 1.07 ± 0.029 |
| TTTTAATCAT | 1.6 ± 0.88 |
| ATTTTAAGCG | 1.01 ± 0.014 |
| GGGCTAAAGG | 1.04 ± 0.03 |
| GATGTTGTAC | 1.09 ± 0.079 |
| GAGGGGAGGG | 1.04 ± 0.065 |
| TATTAGTGGG | 0.979 ± 0.025 |
| CGTGTGGTAG | 0.992 ± 0.044 |
| AGCGCTGGGA | 1 ± 0.05 |
| TTAAGTCCA | 0.995 ± 0.038 |
| TATTTGAGGG | 1 ± 0.041 |
| GGTGTCTGCG | 1.01 ± 0.013 |
| TTGTTTGGGT | 0.984 ± 0.014 |
| TTTTTGCGTT | 0.976 ± 0.037 |

| Sequence | switch fluorescence ratio |
| --- | --- |
| AAAACTTATG | 1.026 ± 0.0033 |
| TAAGGGACAC | 1.05 ± 0.017 |
| ACGATGTATC | 1.06 ± 0.049 |
| TGGCCCGGGG | 0.988 ± 0.031 |
| TTTAAATCGG | 0.979 ± 0.04 |
| TTGTGGATGG | 0.978 ± 0.039 |
| GTGGAGGGTG | 1.05 ± 0.035 |
| GAGTGGACTC | 0.999 ± 0.029 |
| CGGGGTCGTA | 1 ± 0.047 |
| GCTGTTGAAT | 1.02 ± 0.041 |
| TACTGGCTAA | 1 ± 0.038 |
| TGATTGGGCT | 1.03 ± 0.015 |
| GGCTCAGGGG | 1.16 ± 0.035 |
| TGATTTAGAG | 0.998 ± 0.013 |
| CTGGTGGTGG | 0.986 ± 0.075 |
| GAGTGTGACT | 0.97 ± 0.055 |
| GAGAGTTGGT | 1.007 ± 0.0073 |
| TTTGGAAATG | 1.0077 ± 0.00015 |
| GGCCAAGGAA | 0.9812 ± 0.0074 |
| AAACTTCGCT | 1.27 ± 0.25 |
| CTCCGGGGGA | 1.33 ± 0.31 |
| TTTTTTAGAT | 0.985 ± 0.022 |
| GTGGTGGGGC | 0.955 ± 0.03 |
| AGGAGATAAA | 0.983 ± 0.015 |
| TTGTTTTTTG | 1.01 ± 0.034 |

| Sequence | switch fluorescence ratio |
| --- | --- |
| CTGCAGATCG | 1.02 ± 0.06 |
| ACCAGTAGGT | 1.01 ± 0.035 |
| TGGGTAAAAT | 0.971 ± 0.03 |
| TTAATGATTA | 0.994 ± 0.034 |
| CAAAAGGGAT | 1.03 ± 0.017 |
| CAGGTATGTT | 1 ± 0.016 |
| CTAACTGTTA | 0.99 ± 0.015 |
| TGCCATGACG | 0.936 ± 0.046 |
| GGGTCCTACG | 1.12 ± 0.037 |
| CGTTAAGGGA | 0.978 ± 0.021 |
| TTAGAAGACT | 1.08 ± 0.08 |
| TTCGACCTAG | 0.986 ± 0.014 |
| TTACCCTTGG | 1.17 ± 0.05 |
| TTTGCAGCTT | 1.49 ± 0.87 |
| TTGCCCCGTA | 1.02 ± 0.023 |
| CTTGACATA | 1.03 ± 0.011 |
| ACAACCGGGG | 1.37 ± 0.029 |
| GGGGGGCTGT | 0.973 ± 0.047 |
| TAAAGTGGGC | 1.04 ± 0.038 |
| TTTATCCGAG | 1.04 ± 0.042 |
| AATGTTTGTA | 0.9936 ± 0.0094 |
| GAGACCTATT | 0.993 ± 0.035 |
| TGCGTTAAAA | 0.994 ± 0.042 |
| ATAGTGGACA | 0.9867 ± 0.0019 |
| AGTACGGAAG | 1.02 ± 0.024 |

| Sequence | switch fluorescence ratio |
| --- | --- |
| CAATATTCTT | 1.02 ± 0.027 |
| ACTATTATTC | 1.05 ± 0.034 |
| TTAATTTTTC | 1.02 ± 0.03 |
| AAAAGGCTAA | 1 ± 0.0037 |
| CTGAATGC | 1.17 ± 0.035 |
| CCAAAATTCC | 1.12 ± 0.034 |
| GATTGGAGCA | 1.02 ± 0.034 |
| GAAAAGAGTC | 1.07 ± 0.034 |
| TTTTAGGATT | 1.016 ± 0.0018 |
| ATGGGTGATA | 0.9935 ± 0.0092 |
| GGGCTGGACG | 1 ± 0.043 |
| GTTTTATTGC | 0.975 ± 0.04 |
| ATATACTAAT | 1.02 ± 0.038 |
| CCTTATGGGG | 1 ± 0.023 |
| TTAGGGCAGG | 1.06 ± 0.058 |
| CAGGGGTGAT | 1.18 ± 0.19 |
| AGGGTAGCTA | 0.958 ± 0.016 |
| TATTAGATTT | 0.996 ± 0.014 |
| GCTAATGGGA | 0.994 ± 0.018 |
| GGTCGGGTAC | 0.9676 ± 0.0094 |
| TTTTGAGAAT | 1.017 ± 0.0015 |
| GGTTTCGTTT | 1.002 ± 0.0063 |
| ATGTTCGAGA | 0.9855 ± 0.0066 |
| CGTCTTAGTT | 0.993 ± 0.015 |
| TGGCTCCATT | 1.01 ± 0.034 |

| Sequence | switch fluorescence ratio |
| --- | --- |
| AATAATGTGC | 0.987 ± 0.074 |
| GGGTGAACTC | 0.988 ± 0.031 |
| GATCCCAGAG | 1.16 ± 0.082 |
| ATGGGACATT | 1.03 ± 0.079 |
| AATTGGGTAT | 1.0014 ± 0.00066 |
| TAGTAACGGT | 0.996 ± 0.053 |
| CTCGGGGGGC | 0.992 ± 0.063 |
| GGTCATGGCG | 1.02 ± 0.098 |
| TTGGTAGGGG | 1.03 ± 0.077 |
| TTACGGTGGT | 1.03 ± 0.036 |
| AGGTTATAGG | 1.05 ± 0.091 |
| ACCTCGTTTT | 0.9879 ± 0.0062 |
| TAGGCATTGG | 0.995 ± 0.014 |
| TTTTGACACG | 0.959 ± 0.03 |
| TGGGGCCCTT | 1.04 ± 0.02 |
| AAGGAGGATT | 1 ± 0.028 |
| TTTGGCGCGA | 1.43 ± 0.58 |
| TACCACTTTG | 1.24 ± 0.29 |
| CGACGGGTTT | 1.08 ± 0.035 |
| ACAAGACTTA | 1.04 ± 0.018 |
| CGTACTTCCG | 1.019 ± 0.0053 |
| AGGCGACATT | 0.9819 ± 0.0056 |
| GCCGGAGCGG | 1.38 ± 0.062 |
| AGGGGGGTAC | 0.991 ± 0.041 |
| GCAGGGAAGG | 1.03 ± 0.035 |

| Sequence | switch fluorescence ratio |
| --- | --- |
| GCAATTGTTT | 1.02 ± 0.039 |
| GGTTTTGTTG | 1.01 ± 0.0013 |
| GGCAATCACC | 1.402 ± 0.0063 |
| ACCGAGGCAT | 3.81 ± 1.5 |
| TAAGTTACAA | 1.09 ± 0.019 |
| AGGGATCCTA | 0.978 ± 0.012 |
| GGGTGACGCG | 1.01 ± 0.022 |
| AAGTATGGGG | 0.978 ± 0.021 |
| TAGGGGCTTC | 0.979 ± 0.018 |
| TATCGTAGGA | 0.977 ± 0.032 |
| CTGGTCATGT | 0.995 ± 0.05 |
| AGTGTAAAGG | 0.991 ± 0.076 |
| CATATGGGGA | 0.982 ± 0.011 |
| AAGAACGGCG | 1.01 ± 0.052 |
| TTATGGAAGG | 1.03 ± 0.02 |
| GGTGTGGTCA | 0.977 ± 0.035 |
| TCACAGTTGC | 0.99 ± 0.12 |
| TTGACTTTAA | 1 ± 0.083 |
| AATAAAAGGA | 0.997 ± 0.013 |
| CTGGGTTGTA | 1 ± 0.012 |
| TAATAATCAA | 1.02 ± 0.051 |
| CCTTTCGTGT | 1.19 ± 0.22 |
| TACGTTATTT | 1.16 ± 0.027 |
| TCGGCTATG | 1.12 ± 0.15 |
| CCGGAAAAAG | 1.02 ± 0.074 |
